This test has as its target high affinity IL-2 receptor (IL-2R) consisting of CD122, CD132 and CD25, on CTLL-2 cells (mouse) (UniProt P01590). Briefly: cell-based or functional assay.

We go through 1 substance from US20230365642A1.

high affinity IL-2 receptor (IL-2R) consisting of CD122, CD132 and CD25, on CTLL-2 cells (mouse), sequence (P01590 22-268, chain 1 of 3): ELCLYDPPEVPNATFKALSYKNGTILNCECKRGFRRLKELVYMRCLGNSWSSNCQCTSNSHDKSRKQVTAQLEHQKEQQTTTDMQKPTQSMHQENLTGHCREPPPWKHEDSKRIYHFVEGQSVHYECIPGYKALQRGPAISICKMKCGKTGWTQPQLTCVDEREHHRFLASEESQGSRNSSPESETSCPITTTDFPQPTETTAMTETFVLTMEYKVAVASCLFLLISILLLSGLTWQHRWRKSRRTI
high affinity IL-2 receptor (IL-2R) consisting of CD122, CD132 and CD25, on CTLL-2 cells (mouse), sequence (P16297 27-539, chain 2 of 3, further chain): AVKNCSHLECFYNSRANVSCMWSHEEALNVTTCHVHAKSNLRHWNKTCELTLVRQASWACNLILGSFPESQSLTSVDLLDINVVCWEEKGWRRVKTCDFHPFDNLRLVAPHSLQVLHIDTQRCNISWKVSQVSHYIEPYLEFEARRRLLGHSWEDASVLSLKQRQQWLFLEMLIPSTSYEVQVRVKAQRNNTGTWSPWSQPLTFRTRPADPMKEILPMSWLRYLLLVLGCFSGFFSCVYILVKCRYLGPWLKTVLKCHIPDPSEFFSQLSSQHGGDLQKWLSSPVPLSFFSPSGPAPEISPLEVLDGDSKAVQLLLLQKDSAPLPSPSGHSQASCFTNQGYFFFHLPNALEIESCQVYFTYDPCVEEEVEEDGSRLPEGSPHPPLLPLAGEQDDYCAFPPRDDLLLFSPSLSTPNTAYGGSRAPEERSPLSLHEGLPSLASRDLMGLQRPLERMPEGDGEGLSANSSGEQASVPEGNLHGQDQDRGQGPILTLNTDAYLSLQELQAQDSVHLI
high affinity IL-2 receptor (IL-2R) consisting of CD122, CD132 and CD25, on CTLL-2 cells (mouse), sequence (P34902 23-369, chain 3 of 3, further chain): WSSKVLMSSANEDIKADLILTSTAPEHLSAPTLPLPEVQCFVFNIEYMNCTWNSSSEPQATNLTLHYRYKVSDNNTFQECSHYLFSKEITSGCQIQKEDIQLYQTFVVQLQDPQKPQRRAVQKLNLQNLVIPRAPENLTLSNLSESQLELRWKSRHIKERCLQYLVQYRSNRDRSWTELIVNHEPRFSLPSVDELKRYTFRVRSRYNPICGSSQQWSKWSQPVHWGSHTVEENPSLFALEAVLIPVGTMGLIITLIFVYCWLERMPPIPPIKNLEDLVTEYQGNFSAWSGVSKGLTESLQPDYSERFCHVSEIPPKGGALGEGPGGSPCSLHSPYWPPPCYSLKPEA

With “rhIL-2 (from UniProt P60568 21-153) (ligand)”, the CTLL-2 cell proliferation, EC50 came to 6.4 pM.
